# Positions count from the first letter of the chain named. Names and notes keep the numbering of the source. Non-standard residues stand in square brackets, D forms with d. *: point of attachment. 5FAM = O=C1OC2(c3ccc(O)cc3Oc3cc(O)ccc32)c2ccc(C(=O)*)cc21
# T1: L-Abl SH2 domain (recombinant) (human)
# T1 chain: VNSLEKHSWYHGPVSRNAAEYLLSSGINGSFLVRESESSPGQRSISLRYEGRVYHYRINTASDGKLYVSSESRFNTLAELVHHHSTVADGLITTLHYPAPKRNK
# T2: D-Abl SH2 domain (synthetic mirror-image SH2 domain of human BCR::ABL1) (human, UniProt P00519-2 141-240, all residues in D-configuration)
# T2 chain: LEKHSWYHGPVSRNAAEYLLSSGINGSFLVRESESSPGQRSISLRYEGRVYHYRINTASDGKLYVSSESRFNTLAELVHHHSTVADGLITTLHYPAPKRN
# T3: biotinylated synthetic D-Abl SH2 domain (human, UniProt P00519-2 141-240, all residues in D-configuration; biotin (position not given))
# T3 chain: T2 chain
# T4: D-Abl SH2 domain (synthetic mirror-image SH2 domain of human BCR::ABL1) (human, UniProt P00519-2 141-240, all residues in D-configuration)
# T4 construct: Mirror-image protein; also called D-Bcr-Abl SH2; D-SH2
# T4 sequence: T2 chain
# B1: synthetic D-DAM27-XTEN (mirror-image monobody) (designed binder)
# chain: AASSVPTKLEVVAATPTSLLISWDAPAVTVDHYVITYGETGGGGGSQEFEVPGSKSTATISGLKPGVDYTITVYAYEFYSGEYSHFSPISINYRT
# modifications: all residues in D-configuration; biotin at the N-terminus
# B2: synthetic L-DAM27-XTEN (designed binder)
# chain: ASSVPTKLEVVAATPTSLLISWDAPAVTVDHYVITYGETGGGGGSQEFEVPGSKSTATISGLKPGVDYTITVYAYEFYSGEYSHFSPISINYRTAEGPSTAEGPSTAEGPST
# modifications: biotin at the N-terminus
# B3: recombinant L-DAM27-XTEN (designed binder)
# chain: B2 chain
# B4: L-monobody DAM28 (recombinant) (designed binder)
# chain: MAASSVPTKLEVVAATPTSLLISWDAPAVTVDHYVITYGETGGNSPVQEFTVPGSKSTATISGLKPGVDYTITVYAYEYWEYEYSSYSPISINYRT
# B5: monobody DAM26 displayed on yeast (designed binder)
# chain: B4 chain with Y79F, W80Y, E81S, Y82G, S86H, Y87F
# B6: L-monobody DAM30.1 (recombinant) (designed binder)
# chain: MAASSVPTKLEVVAATPTSLLISWDAPAVTVDHYVITYGETGGGWYGQEFEVPGSKSTATISGLKPGVDYTITVYAYEFYSGEYSHFSPISINYRT
# B7: monobody DAM27 displayed on yeast (designed binder)
# chain: ASSVPTKLEVVAATPTSLLISWDAPAVTVDHYVITYGETGGGGGSQEFEVPGSKSTATISGLKPGVDYTITVYAYEFYSGEYSHFSPISINYRT
# B8: L-monobody DAM30.2 (recombinant) (designed binder)
# chain: MAASSVPTKLEVVAATPTSLLISWDAPAVTVDHYVITYGETGAYVSGPQEFTVPGSKSTATISGLKPGVDYTITVYAYEFYSGEYSHFSPISINYRT
# B9: L-monobody DAM21 (recombinant) (designed binder)
# chain: ASSVPTKLEVVAATPTSLLISWDAPAVTVDHYVITYGETGGNSPVQEFTVPGSKSTATISGLKPGVDYTITVYASDYYDGEISWYSPISINYRT
# B10: monobody DAM28 displayed on yeast (designed binder)
# chain: B4 chain
# B11: L-monobody DAM27 (recombinant) (designed binder)
# chain: B7 chain
# B12: L-monobody DAM26 (recombinant) (designed binder)
# chain: B6 chain with G44N, W45S, Y46P, G47V, E51T
# B13: monobody DAM21 displayed on yeast (designed binder)
# chain: B9 chain
# B14: D-pY peptide 5-carboxyfluoresceine-EPQpYEEIPIYLK-CONH2 in D-configuration (peptide)
# peptide: 5FAM-[dE][dP][dQ][dpY][dE][dE][dI][dP][dI][dY][dL][dK]-NH2
# notes: also called D-pYEEI peptide; D-phospho tyrosine (pY) peptide; source: synthetic peptide, bought: Peptide Synthetics (UK)
# B15: D-Abl SH2 A198C (synthetic D-Abl SH2 domain not desulfurized, cysteine at position 198) (domain or fragment, human)
# chain: T2 chain with A58C
# modifications: all residues in D-configuration
# notes: SH2 domain of human ABL1 (BCR::ABL1); Found as a disulfide-bridged (Cys198) dimer in both crystal structures; also called D-SH2
# Legend:
# [1] = biological target: T1, L-Abl SH2 domain (recombinant); assay: ITC; monobody in the syringe titrated to the SH2 domain, 20 mM HEPES pH 7.4, 150 mM NaCl, 0.5 mM TCEP-HCl, 25 °C, 1:1 binding model
# [2] = biological target: T1, L-Abl SH2 domain (recombinant); assay: ITC
# [3] = biological target: D-Abl SH2 domain (synthetic mirror-image SH2 domain of human BCR::ABL1) (human) (UniProt P00519); assay: ITC; monobody in the syringe titrated to the SH2 domain, 20 mM HEPES pH 7.4, 150 mM NaCl, 0.5 mM TCEP-HCl, 25 °C, 1:1 binding model
# [4] = biological target: T2, D-Abl SH2 domain (synthetic …); assay: ITC
# [5] = biological target: T2, D-Abl SH2 domain (synthetic …); assay: ITC
# [6] = biological target: T3, biotinylated synthetic D-Abl SH2 domain; assay: FACS; yeast surface display
# [7] = biological target: T2, D-Abl SH2 domain (synthetic …); assay: ITC
# [8] = biological target: T4, D-Abl SH2 domain (synthetic …); assay: fluorescence polarisation; direct binding of the fluorescent D-pY peptide to D-Abl SH2 (Fig. S1); conditions not shown; conditions: both partners purified
# [9] = biological target: the molecule itself; assay: crystal structure; L-DAM21 with D-Abl SH2 A198C; 0.16 M ammonium sulfate, 0.08 M sodium acetate pH 4.6, 20% PEG 4000, 20% glycerol; 100 K
binder,measurement,setting,value
B1,stoichiometry N,[1],1
same,Kd,[2],125 nM
B2,stoichiometry N,[3],1
same,Kd,[4],128 nM
B3,stoichiometry N,[3],1
same,Kd,[4],97.6 nM
B4,Kd,[5],58.9 nM
B5,Kd,[6],32 nM
B6,Kd,[5],90.3 nM
B7,Kd,[6],24 nM
B8,Kd,[5],189 nM
B9,Kd,[7],11.9 nM
B10,Kd,[6],68 nM
B11,Kd,[7],72.3 nM
B12,Kd,[5],249 nM
B13,Kd,[6],20 nM
B14,Kd,[8],~5000 nM
B15,binding result,[9],binds
